Results on 16 molecules are retold here after patent US20150344570A1 (published 2015).

First the molecules themselves.
T1: FcγRIIb (human, UniProt P31994 43-217)
T1 construct: extracellular domain; also called FcgRIIb; 2b
T1 sequence (looked up): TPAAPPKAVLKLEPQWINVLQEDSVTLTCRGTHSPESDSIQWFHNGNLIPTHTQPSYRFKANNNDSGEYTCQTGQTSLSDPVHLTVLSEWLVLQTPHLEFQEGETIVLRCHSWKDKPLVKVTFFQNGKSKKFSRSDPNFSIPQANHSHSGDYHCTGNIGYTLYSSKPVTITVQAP

B1: GpH7-A5/GpH7-B3 variant V266_01G/GpL16-k0 (antibody, human IgG1, kappa)
heavy 1: not shown
heavy 2: not shown
light: DIVMTQSPLSLPVTPGEPASISCQASESLVHSNRNTYLHWYLQKPGQSPQLLIYKVSNRFSGVPDRFSGSGSGTDFTLKISRVEAEDVGVYYCSQNTHVPPTFGQGTKVEIERTVAAPSVFIFPPSDEQLKSGTASVVCLLNNFYPREAKVQWKVDNALQSGNSQESVTEQDSKDSTYSLSSTLTLSKADYEKHKVYACEVTHQGLSSPVTKSFNRGEC
notes: mutation in the GpH7-B3 chain only; also called He Ab
B2: GpH7-A5/GpH7-B3 variant D265_20W/GpL16-k0 (antibody, human IgG1, kappa)
heavy 1: not shown
heavy 2: not shown
light: B1 light
notes: as for B1
B3: GpH7-A5/GpH7-B3 variant S267_07I/GpL16-k0 (antibody, human IgG1, kappa)
heavy 1: not shown
heavy 2: not shown
light: B1 light
notes: as for B1
B4: GpH7-A5/GpH7-B3 variant D265_12R/GpL16-k0 (antibody, human IgG1, kappa)
heavy 1: not shown
heavy 2: not shown
light: B1 light
notes: as for B1
B5: GpH7-A5/GpH7-B3 variant V266_04F/GpL16-k0 (antibody, human IgG1, kappa)
heavy 1: not shown
heavy 2: not shown
light: B1 light
notes: as for B1
B6: GpH7-A5/GpH7-B3 variant D265_11K/GpL16-k0 (antibody, human IgG1, kappa)
heavy 1: not shown
heavy 2: not shown
light: B1 light
notes: as for B1
B7: GpH7-A5/GpH7-B3 variant D265_10E/GpL16-k0 (antibody, human IgG1, kappa)
heavy 1: not shown
heavy 2: not shown
light: B1 light
notes: as for B1
B8: GpH7-A5/GpH7-B3 variant S267_01G/GpL16-k0 (antibody, human IgG1, kappa)
heavy 1: not shown
heavy 2: not shown
light: B1 light
notes: as for B1
B9: GpH7-A5/GpH7-B3 variant V266_05P/GpL16-k0 (antibody, human IgG1, kappa)
heavy 1: not shown
heavy 2: not shown
light: B1 light
notes: as for B1
B10: GpH7-A5/GpH7-B3 variant D265_13S/GpL16-k0 (antibody, human IgG1, kappa)
heavy 1: not shown
heavy 2: not shown
light: B1 light
notes: as for B1
B11: GpH7-A5/GpH7-B3 variant D265_15Y/GpL16-k0 (antibody, human IgG1, kappa)
heavy 1: not shown
heavy 2: not shown
light: B1 light
notes: as for B1
B12: GpH7-A5/GpH7-B3 variant D265_08L/GpL16-k0 (antibody, human IgG1, kappa)
heavy 1: not shown
heavy 2: not shown
light: B1 light
notes: as for B1
B13: GpH7-A5/GpH7-B3 variant V266_06M/GpL16-k0 (antibody, human IgG1, kappa)
heavy 1: not shown
heavy 2: not shown
light: B1 light
notes: as for B1
B14: GpH7-A5/GpH7-B3 variant S267_06M/GpL16-k0 (antibody, human IgG1, kappa)
heavy 1: not shown
heavy 2: not shown
light: B1 light
notes: as for B1
B15: GpH7-A5/GpH7-B3 variant D265_07I/GpL16-k0 (antibody, human IgG1, kappa)
heavy 1: not shown
heavy 2: not shown
light: B1 light
notes: as for B1
B16: GpH7-A5/GpH7-B3 variant D265_03V/GpL16-k0 (antibody, human IgG1, kappa)
heavy 1: not shown
heavy 2: not shown
light: B1 light
notes: as for B1

T2 sequence (P08637 17-208): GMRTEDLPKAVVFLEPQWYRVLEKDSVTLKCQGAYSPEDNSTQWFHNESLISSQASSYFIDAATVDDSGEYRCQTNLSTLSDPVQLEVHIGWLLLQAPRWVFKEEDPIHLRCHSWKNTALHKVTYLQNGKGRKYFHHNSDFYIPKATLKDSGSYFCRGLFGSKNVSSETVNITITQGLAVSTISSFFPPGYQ

One experiment addresses T2, FcγRIIIa (human, UniProt P08637 17-208).
T2 construct: extracellular domain; also called FcgRIIIa; 3a
Description: SPR (Biacore), relative binding. (In SPR one partner is held on a chip, and binding of the other changes the refractive index at the surface.)
As to B1, the He/Con_3a was 24 % of GpH7-A5/GpH7-B3/GpL16-k0.
Same read-out and setting: to B2 belongs -0.5 % of GpH7-A5/GpH7-B3/GpL16-k0; to B3, 25.2 % of GpH7-A5/GpH7-B3/GpL16-k0; to B4, 3.2 % of GpH7-A5/GpH7-B3/GpL16-k0.
Same read-out and setting: under B5 stands 34.7 % of GpH7-A5/GpH7-B3/GpL16-k0; under B6, 2.5 % of GpH7-A5/GpH7-B3/GpL16-k0; under B7, 20.1 % of GpH7-A5/GpH7-B3/GpL16-k0.
On the same count and under the same terms, under B8 stands 53.8 % of GpH7-A5/GpH7-B3/GpL16-k0; under B9, -0.7 % of GpH7-A5/GpH7-B3/GpL16-k0.
Turning to B10, the He/Con_3a is 3.9 % of GpH7-A5/GpH7-B3/GpL16-k0.
Same read-out and setting: to B11 belongs -1.7 % of GpH7-A5/GpH7-B3/GpL16-k0.
Regarding B12, the He/Con_3a was 0 % of GpH7-A5/GpH7-B3/GpL16-k0.
On the same count and under the same terms, under B13 stands 85.8 % of GpH7-A5/GpH7-B3/GpL16-k0.
Same read-out and setting: to B14 belongs 66 % of GpH7-A5/GpH7-B3/GpL16-k0; to B15, -0.8 % of GpH7-A5/GpH7-B3/GpL16-k0.
With B16, the He/Con_3a is 0.6 % of GpH7-A5/GpH7-B3/GpL16-k0.

Another experiment has as its target T1, FcγRIIb. The experiment is described as follows: SPR (Biacore), relative binding.
For the molecule B1, the He/Con_2b was 51.5 % of GpH7-A5/GpH7-B3/GpL16-k0.
Regarding B2, the He/Con_2b was 1.1 % of GpH7-A5/GpH7-B3/GpL16-k0.
As for B3, the He/Con_2b is 192 % of GpH7-A5/GpH7-B3/GpL16-k0.
Same read-out and setting: under B4 stands 15 % of GpH7-A5/GpH7-B3/GpL16-k0; under B5, 57.6 % of GpH7-A5/GpH7-B3/GpL16-k0; under B6, 14.9 % of GpH7-A5/GpH7-B3/GpL16-k0.
Still for that read-out and setting: under B7 stands 38.2 % of GpH7-A5/GpH7-B3/GpL16-k0; under B8, 105 % of GpH7-A5/GpH7-B3/GpL16-k0.
The same measure, in the same setting: under B9 stands 0.4 % of GpH7-A5/GpH7-B3/GpL16-k0; under B10, 11.3 % of GpH7-A5/GpH7-B3/GpL16-k0; under B11, 0.6 % of GpH7-A5/GpH7-B3/GpL16-k0.
Consider B12, for which the He/Con_2b was 4.6 % of GpH7-A5/GpH7-B3/GpL16-k0.
The same measure, in the same setting: under B13 stands 251 % of GpH7-A5/GpH7-B3/GpL16-k0.
For B14, the He/Con_2b is 210 % of GpH7-A5/GpH7-B3/GpL16-k0.
On the same count and under the same terms, under B15 stands 1.3 % of GpH7-A5/GpH7-B3/GpL16-k0; under B16, 3.2 % of GpH7-A5/GpH7-B3/GpL16-k0.

Another experiment addresses T2, FcγRIIIa. Description: SPR; He/Con_3a divided by He/Con_2b (FcγRIIIa against FcγRIIb).
In the case of B1, the “He_3a/2b (IIIa/IIb)” value stood at 0.47 ratio.
As for B2, the “He_3a/2b (IIIa/IIb)” value is -0.48 ratio.
On the same count and under the same terms, to B3 belongs 0.13 ratio; to B4, 0.21 ratio; to B5, 0.6 ratio.
Same read-out and setting: under B6 stands 0.17 ratio; under B7, 0.53 ratio.
With B8, the “He_3a/2b (IIIa/IIb)” value is 0.51 ratio.
Still for that read-out and setting: to B9 belongs -1.98 ratio.
The same measure, in the same setting: under B10 stands 0.35 ratio; under B11, -2.86 ratio; under B12, 0 ratio.
The same measure, in the same setting: under B13 stands 0.34 ratio; under B14, 0.31 ratio.
For B15, the “He_3a/2b (IIIa/IIb)” value is -0.61 ratio.
On the same count and under the same terms, under B16 stands 0.19 ratio.
